B1: IL-10Rβ (monomer) (receptor, human, UniProt Q08334 20-220, looked up)
chain: MVPPPENVRMNSVNFKNILQWESPAFAKGNLTFTAQYLSYRIFQDKCMNTTLTECDFSSLSKYGDHTLRVRAEFADEHSDWVNITFCPVDDTIIGPPGMQVEVLADSLHMRFLAPKIENEYETWTMKNVYNSWTYNVQYWKNGTDEKFQITPQYDFEVLRNLEPWTTYCVQVRGFLPDRNKAGEWSEPVCEQTTHDETVPS
notes: Soluble receptor expressed in Hi5 insect cells; also called IL-10 Receptor Beta; IL-10R2

Assay [1] has as its target T1, wild-type IFN-λ3/IFN-λR1 binary complex (human, UniProt Q8IU57 21-228, limits assumed).
T1 construct: Complex of m1 and m3; In SPR it was the immobilized binary complex; also called IFN-λ/IFN-λR1 binary complex; wild-type IFN-λR1/IFN-λ3
T1 sequence 1: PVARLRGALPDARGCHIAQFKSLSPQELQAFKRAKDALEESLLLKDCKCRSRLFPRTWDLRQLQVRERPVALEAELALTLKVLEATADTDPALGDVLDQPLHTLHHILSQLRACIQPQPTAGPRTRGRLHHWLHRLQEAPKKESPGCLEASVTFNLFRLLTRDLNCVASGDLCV
T1 sequence 2: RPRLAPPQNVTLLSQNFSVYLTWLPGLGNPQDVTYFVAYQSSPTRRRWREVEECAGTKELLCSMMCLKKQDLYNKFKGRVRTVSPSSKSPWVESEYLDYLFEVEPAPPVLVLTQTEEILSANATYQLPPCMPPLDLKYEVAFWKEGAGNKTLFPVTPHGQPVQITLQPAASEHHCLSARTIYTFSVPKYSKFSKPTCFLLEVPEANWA
Description: surface plasmon resonance, equilibrium fit; binary complex on the sensor chip, IL-10Rβ as analyte up to 100 uM. Here is the method: (§1) KD values were determined by fitting to a first order equilibrium binding model.
(§2) Surface plasmon resonance. GE Biacore T100 was used to measure the KD by either kinetic (type I IFNs) or equilibrium (type III IFNs) methods. Approximately 100 RU of each of the receptors of were captured on a Biotin CAP-chip (GE) including a reference channel of an unrelated cytokine receptor (IL-2Rβ).

For assay [2], the target named is T2, H11/IFN-λR1 binary complex (human, UniProt Q8IU57 21-228, limits assumed).
T2 construct: Complex of m2 and m3, immobilized for SPR; also called IFN-λ3 H11/IFN-λR1 binary complex; H11-containing binary complex
T2 sequence 1: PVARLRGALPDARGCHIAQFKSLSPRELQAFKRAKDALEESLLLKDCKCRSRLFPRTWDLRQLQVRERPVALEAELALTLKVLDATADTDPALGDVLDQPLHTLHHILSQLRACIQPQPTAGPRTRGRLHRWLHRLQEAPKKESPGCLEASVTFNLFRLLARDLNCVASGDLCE
T2 sequence 2: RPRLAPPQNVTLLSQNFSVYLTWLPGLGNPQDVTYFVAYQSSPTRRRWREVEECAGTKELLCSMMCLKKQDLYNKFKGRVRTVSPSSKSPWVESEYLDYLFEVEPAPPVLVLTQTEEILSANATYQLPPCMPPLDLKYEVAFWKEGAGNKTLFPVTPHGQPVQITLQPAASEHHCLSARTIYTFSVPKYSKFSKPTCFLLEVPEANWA
Description: SPR, equilibrium fit, immobilized H11/IFN-λR1 binary complex; SPR; IL-10Rβ over the immobilized H11/IFN-λR1 binary complex. How it is done: as §1, §2

Assay [3] deals with T2, H11/IFN-λR1 binary complex. Kind of assay: SPR, equilibrium fit, immobilized binary complexes. How it is done:
as §1, §2

For assay [4], the target named is T3, IFN-λR1 (human, UniProt Q8IU57 21-228, limits assumed).
T3 construct: Soluble receptor expressed in Hi5 insect cells; It was captured on a Biotin CAP chip for SPR and used as streptavidin tetramers or soluble protein in the yeast assays; For crystallography it was expressed in HEK293 GnTI- cells and deglycosylated with EndoF and EndoH; also called IL-28RA; IFNλ Receptor 1
T3 sequence (looked up): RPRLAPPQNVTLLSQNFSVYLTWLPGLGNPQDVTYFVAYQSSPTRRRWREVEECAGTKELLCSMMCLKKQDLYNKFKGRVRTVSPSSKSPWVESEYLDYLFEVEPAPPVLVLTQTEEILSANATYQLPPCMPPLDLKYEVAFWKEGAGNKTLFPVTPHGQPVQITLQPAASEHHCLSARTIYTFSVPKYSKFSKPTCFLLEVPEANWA
Description: yeast surface display titration with IFN-λR1, flow cytometry (FIG. 7B legend gives KD=400 nM).

Assay [5] deals with T3, IFN-λR1. Kind of assay: SPR, equilibrium fit; wild-type IFN-λ3 binding IFN-λR1. How it is done: as §1, §2
The target in assay [6] is T4, IL-10Rβ streptavidin tetramers (human, UniProt Q08334 20-220; P22629 37-163).
T4 construct: Same receptor as m4, multimerised on streptavidin for staining of yeast; also called avidity-enhanced tetrameric form of IL-10Rβ; IL-10Rβ tetramer
T4 sequence (P22629 37-163, one chain of several): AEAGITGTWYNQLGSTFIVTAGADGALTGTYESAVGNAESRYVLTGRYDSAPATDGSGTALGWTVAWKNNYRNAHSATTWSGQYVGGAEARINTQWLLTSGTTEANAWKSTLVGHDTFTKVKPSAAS
Kind of assay: flow cytometry of yeast displaying IFN-λ3, no IFN-λR1 present. Here is the method:
as §1
(§3) We used yeast surface display as a platform for engineering a higher affinity IFN-λ.

For assay [7], the target named is B1. Described as above. Here is the method: as §1, §3
Assay [8] addresses B1. Description: yeast-surface titration with IL-10Rβ (affinity maturation was done with soluble IFN-λR1 bound to the displayed cytokine); on-yeast titration, H11 displayed on yeast; presence of IFN-λR1 not stated for the titration.
Assay [9] addresses T3, IFN-λR1. Description: SPR, equilibrium fit. Here is the method: as §1, §2
For assay [10], the target named is T5, heterodimeric receptor composed of IL-10Rβ and IFN-λR1 (on cells) (human, UniProt Q8IU57 21-520; Q08334 20-325).
T5 sequence (looked up) 1: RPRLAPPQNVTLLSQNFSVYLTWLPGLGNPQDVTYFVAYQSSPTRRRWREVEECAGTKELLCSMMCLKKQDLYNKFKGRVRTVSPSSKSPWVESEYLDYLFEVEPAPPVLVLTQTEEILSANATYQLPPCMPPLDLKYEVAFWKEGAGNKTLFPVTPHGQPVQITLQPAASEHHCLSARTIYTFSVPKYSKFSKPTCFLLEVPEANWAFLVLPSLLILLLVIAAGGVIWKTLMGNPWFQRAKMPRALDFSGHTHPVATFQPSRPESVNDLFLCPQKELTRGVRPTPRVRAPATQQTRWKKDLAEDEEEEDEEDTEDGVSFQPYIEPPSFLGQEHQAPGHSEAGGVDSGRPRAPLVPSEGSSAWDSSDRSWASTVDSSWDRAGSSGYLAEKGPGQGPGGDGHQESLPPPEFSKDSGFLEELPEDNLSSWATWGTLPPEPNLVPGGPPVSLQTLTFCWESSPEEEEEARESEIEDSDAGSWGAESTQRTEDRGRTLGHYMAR
T5 sequence (looked up) 2: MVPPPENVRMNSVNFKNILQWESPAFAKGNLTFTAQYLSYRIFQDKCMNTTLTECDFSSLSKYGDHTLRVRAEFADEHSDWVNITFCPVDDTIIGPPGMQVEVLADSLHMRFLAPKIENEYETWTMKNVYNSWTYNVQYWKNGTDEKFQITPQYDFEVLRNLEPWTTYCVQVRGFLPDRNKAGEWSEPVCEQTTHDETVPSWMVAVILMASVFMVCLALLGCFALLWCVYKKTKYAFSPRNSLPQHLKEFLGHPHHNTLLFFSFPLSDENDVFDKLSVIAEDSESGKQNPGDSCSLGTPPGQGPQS
Description: cell-based or functional assay.

The target in assay [11] is T3, IFN-λR1. Kind of assay: SPR, equilibrium fit; H11 (carries Thr150Ala) binding IFN-λR1. Here is the method: as §1, §2
The target of assay [12] is T6, IFNλR1/IFNAR1 receptor dimer (on Hap1 cells) (UniProt Q8IU57 21-520; P17181 28-557, limits assumed).
T6 sequence (looked up) 1: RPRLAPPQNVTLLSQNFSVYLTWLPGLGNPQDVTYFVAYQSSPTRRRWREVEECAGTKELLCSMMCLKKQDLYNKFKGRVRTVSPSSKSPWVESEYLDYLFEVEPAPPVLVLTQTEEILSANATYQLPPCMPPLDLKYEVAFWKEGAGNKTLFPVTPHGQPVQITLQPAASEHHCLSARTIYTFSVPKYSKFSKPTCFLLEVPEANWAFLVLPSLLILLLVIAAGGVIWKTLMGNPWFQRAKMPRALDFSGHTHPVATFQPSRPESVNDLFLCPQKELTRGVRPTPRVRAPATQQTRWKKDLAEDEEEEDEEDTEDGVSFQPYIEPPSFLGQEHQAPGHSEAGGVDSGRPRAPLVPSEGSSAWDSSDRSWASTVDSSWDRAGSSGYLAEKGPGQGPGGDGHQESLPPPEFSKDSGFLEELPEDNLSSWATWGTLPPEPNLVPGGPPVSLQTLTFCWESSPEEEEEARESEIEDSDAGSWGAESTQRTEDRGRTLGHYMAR
T6 sequence (looked up) 2: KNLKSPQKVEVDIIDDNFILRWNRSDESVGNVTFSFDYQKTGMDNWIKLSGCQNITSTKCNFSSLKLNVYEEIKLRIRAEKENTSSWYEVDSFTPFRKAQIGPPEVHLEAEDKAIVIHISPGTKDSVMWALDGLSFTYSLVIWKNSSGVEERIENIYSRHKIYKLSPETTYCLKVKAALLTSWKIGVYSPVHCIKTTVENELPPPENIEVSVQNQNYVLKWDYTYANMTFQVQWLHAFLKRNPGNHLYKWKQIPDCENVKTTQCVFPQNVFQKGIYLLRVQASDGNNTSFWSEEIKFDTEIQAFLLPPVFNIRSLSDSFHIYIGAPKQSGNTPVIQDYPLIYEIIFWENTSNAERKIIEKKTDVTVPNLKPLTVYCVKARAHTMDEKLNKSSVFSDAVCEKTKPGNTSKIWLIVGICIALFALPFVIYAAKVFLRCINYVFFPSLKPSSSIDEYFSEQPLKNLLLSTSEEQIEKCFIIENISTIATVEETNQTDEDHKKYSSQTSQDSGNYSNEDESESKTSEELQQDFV
Kind of assay: cell-based or functional assay.

As for B1, the Kd in assay [1] came to 16000 nM; in assay [2], 560 nM. Moreover, in [3], the “fold increase in IL-10Rβ affinity against the wild-type IFN-λ3/IFN-λR1 binary complex” value was found to be 30 fold.

B2: wild-type IFN-λ3 (ligand)
chain: PVARLRGALPDARGCHIAQFKSLSPQELQAFKRAKDALEESLLLKDCKCRSRLFPRTWDLRQLQVRERPVALEAELALTLKVLEATADTDPALGDVLDQPLHTLHHILSQLRACIQPQPTAGPRTRGRLHHWLHRLQEAPKKESPGCLEASVTFNLFRLLTRDLNCVASGDLCV
notes: For SPR it was expressed in Hi5 insect cells; also called IL-28B; IFN-λ3 wt
Turning to B2, the Kd was about 400 nM in the assay with IFN-λR1 [4] and 850 nM with IFN-λR1 [5]. Further, the binding result (in assay [6]; with IL-10Rβ (monomer) [7]) was “no binding” throughout.

B3: IFN-λ3 H11 (ligand)
chain: PVARLRGALPDARGCHIAQFKSLSPRELQAFKRAKDALEESLLLKDCKCRSRLFPRTWDLRQLQVRERPVALEAELALTLKVLDATADTDPALGDVLDQPLHTLHHILSQLRACIQPQPTAGPRTRGRLHRWLHRLQEAPKKESPGCLEASVTFNLFRLLARDLNCVASGDLCE
notes: also called engineered IFN-λ3 H11
For the molecule B3, in the assay with IL-10Rβ (monomer) [8], the Kd worked out at 200 nM. Moreover, the “fold higher affinity against wild-type IFN-λ3” value with IFN-λR1 [9] was about 5 fold. Besides, in assay [10], the “EC50 for phospho-Stat1 on Hap1 cells, fold improvement over wild-type IFN-λ3” value came out at 100 fold and the “anti-viral potency on Huh7.5 cells infected with HCV, fold over wild-type IFN-λ3” value worked out at 12 fold. In addition, the Kd in the assay with IFN-λR1 [11] was determined as 150 nM.

B4: Synthekine 2 (designed binder)
chain: ARGCHIAQFKSLSPAELQAFKRAKDALEESLLLKDCKCRSRLFPRTWDLRQLQVRERPVALEAELALTLKVLEATADTDPALGDVLDAPLATLHHILSQLRACIQPQPTAGPRTRGRLHRWLHRLQEAPKKESPGCLEASVTFNLFRLLARDLNCVASGDLCEGSGSGLGCDLPQNHGLLSANTLVLLHQMRRISPFLCAKDARDFRFPQEMVKGSQLQKAHVMSVLHEMLQQIFSLFHTERSSAAWNMTLLDQLHTGLHQQLQHLETCLLQVVGEGESAGAISSPALTLRRYFQGIRVYLKEKKYSDCAWEVVRMEIMASLFLSTNMQERLRSKDRDLGSSAAAHHHHHH
Consider B4, for which the “Emax of phospho-STAT1 activation in Hap1 cells” value in [12] is 2 fold of the signal induced by type III IFNs.

These data come from patent US20190225665A1 (Stanford University, published 2019).
